Reference: patent US20190300623A1 (POLYTHERICS, published 2019)

Molecular target: T1, recombinant human PSMA (R&D Systems) (human, UniProt Q04609 44-750)
T1 construct: Bought protein used as the Biacore analyte; also called PSMA antigen; PSMA analyte
Assay: SPR (Biacore T200), relative to AB-01 on the same chip

T1 sequence (Q04609 44-750 limits assumed): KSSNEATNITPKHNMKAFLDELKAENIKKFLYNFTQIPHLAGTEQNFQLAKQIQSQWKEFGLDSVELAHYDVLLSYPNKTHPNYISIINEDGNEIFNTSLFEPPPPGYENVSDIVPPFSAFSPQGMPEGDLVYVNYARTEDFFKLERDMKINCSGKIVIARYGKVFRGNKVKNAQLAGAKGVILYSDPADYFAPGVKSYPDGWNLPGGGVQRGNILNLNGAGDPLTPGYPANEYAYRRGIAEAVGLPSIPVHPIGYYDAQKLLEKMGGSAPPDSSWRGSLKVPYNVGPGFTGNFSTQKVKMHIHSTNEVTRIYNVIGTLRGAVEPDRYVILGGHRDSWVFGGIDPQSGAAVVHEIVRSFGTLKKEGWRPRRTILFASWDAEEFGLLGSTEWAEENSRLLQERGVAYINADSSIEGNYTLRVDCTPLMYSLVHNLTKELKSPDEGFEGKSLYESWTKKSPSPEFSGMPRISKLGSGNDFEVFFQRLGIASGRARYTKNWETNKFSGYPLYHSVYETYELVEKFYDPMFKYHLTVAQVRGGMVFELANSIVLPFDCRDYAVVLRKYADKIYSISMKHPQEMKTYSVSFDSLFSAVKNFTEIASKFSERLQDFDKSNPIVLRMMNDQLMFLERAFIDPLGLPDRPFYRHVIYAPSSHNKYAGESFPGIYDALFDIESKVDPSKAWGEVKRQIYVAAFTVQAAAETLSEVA

Relative KD	Binder
1.98	AB-02 (antibody, human IgG1, V domains shown, Variable domains only; Expressed as human IgG1 (G1m3) / kappa (Km3)) VH: EVQLVQSGAEVKKPGASVKVSCKASGYTFTEYTIHWVRQAPGKGLEWIGNINPNNGGTTYNQKFEDRVTITVDKSTSTAYMELSSLRSEDTAVYYCAAYWLFDYWGQGTTVTVSS VL: DIQMTQSPSTLSASVGDRVTITCKASQDVGTAVDWYQQKPGQAPKLLIYWASTRHTGVPDRFSGSGSGTDFTLTISRLQPEDFAVYYCQQYNSYPLTFGQGTKVDIK
1.56	AB-04 (antibody, human IgG1, V domains shown, Variable domains only; Expressed as human IgG1 (G1m3) / kappa (Km3)) VH: EVQLVQSGAEVKKPGASVKVSCKASGYTFTEYTIHWVRQAPGKGLEWIGNINPNNGGTTYNQKFEDRVTITVDKSTSTAYMELSSLRSEDTAVYYCAGAWTMDYWGQGTTVTVSS VL: DIQMTQSPSTLSASVGDRVTITCKASQDVGTAVDWYQQKPGQAPKLLIYWASTRHTGVPDRFSGSGSGTDFTLTISRLQPEDFAVYYCQQFTRYPLTFGQGTKVDIK

Molecular target: PSMA on PSMA-positive LNCaP (clone FGC) and C4-2 cells
Assay: cell-based or functional assay

Binder	IC50 (nM), anti-proliferative effect on C4-2 cells (CellTiter Glo viability)	IC50 (nM), anti-proliferative effect on LNCaP cells (CellTiter Glo viability)
AB-02-mc-val-cit-PAB-MMAE (antibody, human IgG1, V domains shown, mc-val-cit-PAB-MMAE (maleimide reagent) conjugated after TCEP reduction; average DAR 3.5 (±0.2); attachment residues not given) VH: EVQLVQSGAEVKKPGASVKVSCKASGYTFTEYTIHWVRQAPGKGLEWIGNINPNNGGTTYNQKFEDRVTITVDKSTSTAYMELSSLRSEDTAVYYCAAYWLFDYWGQGTTVTVSS VL: DIQMTQSPSTLSASVGDRVTITCKASQDVGTAVDWYQQKPGQAPKLLIYWASTRHTGVPDRFSGSGSGTDFTLTISRLQPEDFAVYYCQQYNSYPLTFGQGTKVDIK	0.18 nM	0.61 nM
AB-03-mc-val-cit-PAB-MMAE (antibody, human IgG1, V domains shown, mc-val-cit-PAB-MMAE (maleimide reagent) conjugated after TCEP reduction; average DAR 3.5 (±0.2); attachment residues not given) VH: EVQLVQSGAEVKKPGASVKVSCKASGYTFTEYTIHWVRQAPGKGLEWIGNINPNNGGTTYNQKFEDRVTITVDKSTSTAYMELSSLRSEDTAVYYCAGGWTFDYWGQGTTVTVSS VL: DIQMTQSPSTLSASVGDRVTITCKASQDVGTAVDWYQQKPGQAPKLLIYWASTRHTGVPDRFSGSGSGTDFTLTISRLQPEDFAVYYCQQFTRYPLTFGQGTKVDIK	0.22 nM	0.7 nM
AB-05-mc-val-cit-PAB-MMAE (antibody, human IgG1, V domains shown, mc-val-cit-PAB-MMAE (maleimide reagent) conjugated after TCEP reduction; average DAR 3.5 (±0.2); attachment residues not given) VH: EVQLVQSGAEVKKPGASVKVSCKASGYTFTEYTIHWVRQAPGKGLEWIGNINPNNGGTTYNQKFEDRVTITVDKSTSTAYMELSSLRSEDTAVYYCAAYWLFDYWGQGTTVTVSS VL: DIQMTQSPSTLSASVGDRVTITCKASQDVGTAVDWYQQKPGQAPKLLIYWASTRHTGVPDRFSGSGSGTDFTLTISRLQPEDFAVYYCQQYNAYSLTFGQGTKVDIK	0.41 nM	1.27 nM
AB-04-mc-val-cit-PAB-MMAE (antibody, human IgG1, V domains shown, mc-val-cit-PAB-MMAE (maleimide reagent) conjugated after TCEP reduction; average DAR 3.5 (±0.2); attachment residues not given) VH: EVQLVQSGAEVKKPGASVKVSCKASGYTFTEYTIHWVRQAPGKGLEWIGNINPNNGGTTYNQKFEDRVTITVDKSTSTAYMELSSLRSEDTAVYYCAGAWTMDYWGQGTTVTVSS VL: DIQMTQSPSTLSASVGDRVTITCKASQDVGTAVDWYQQKPGQAPKLLIYWASTRHTGVPDRFSGSGSGTDFTLTISRLQPEDFAVYYCQQFTRYPLTFGQGTKVDIK	0.21 nM	0.67 nM
AB-08-mc-val-cit-PAB-MMAE (antibody, V domains shown, mc-val-cit-PAB-MMAE (maleimide reagent) conjugated after TCEP reduction; average DAR 3.5 (±0.2); attachment residues not given) VH: QVQLVESGGGVVQPGRSLRLSCAASGFAFSRYGMHWVRQAPGKGLEWVAVIWYDGSNKYYADSVKGRFTISRDNSKNTQYLQMNSLRAEDTAVYYCARGGDFLYYYYYGMDVWGQGTTVTVSS VL: DIQMTQSPSSLSASVGDRVTITCRASQGISNYLAWYQQKTGKVPKFLIYEASTLQSGVPSRFSGGGSGTDFTLTISSLQPEDVATYYCQNYNSAPFTFGPGTKVDIK	0.31 nM	1.03 nM
AB-09-mc-val-cit-PAB-MMAE (antibody, IgG1, V domains shown, mc-val-cit-PAB-MMAE (maleimide reagent) conjugated after TCEP reduction; average DAR 3.5 (±0.2); attachment residues not given) VH: QVQLVESGGGVVQPGRSLRLSCAASGFTFSNYVMHWVRQAPGKGLEWVAIIWYDGSNKYYADSVKGRFTISRDNSKNTLYLQMNSLRAEDTAVYYCAGGYNWNYEYHYYGMDVWGQGTTVTVSS VL: DIQMTQSPSSLSASVGDRVTITCRASQGITNYLAWFQQKPGKAPKSLIYAASSLQSGVPSKFSGSGSGTDFSLTISSLQPEDFATYYCQQYNSYPITFGQGTRLEIK	0.24 nM	0.89 nM

Molecular target: T1, recombinant human PSMA (R&D Systems)
Assay: SPR (Biacore T200), antibody captured on Protein A chip, recombinant human PSMA as analyte, 25 C

Kd	Binder
0.245 nM	AB-03 (antibody, human IgG1, V domains shown, Variable domains only; Expressed as human IgG1 (G1m3) / kappa (Km3)) VH: EVQLVQSGAEVKKPGASVKVSCKASGYTFTEYTIHWVRQAPGKGLEWIGNINPNNGGTTYNQKFEDRVTITVDKSTSTAYMELSSLRSEDTAVYYCAGGWTFDYWGQGTTVTVSS VL: DIQMTQSPSTLSASVGDRVTITCKASQDVGTAVDWYQQKPGQAPKLLIYWASTRHTGVPDRFSGSGSGTDFTLTISRLQPEDFAVYYCQQFTRYPLTFGQGTKVDIK

Molecular target: T1, recombinant human PSMA (R&D Systems)
Assay: as above
Remark: another data set of the same source

Kd	Binder
0.28 nM	AB-02 (antibody, human IgG1, V domains shown, Variable domains only; Expressed as human IgG1 (G1m3) / kappa (Km3)) VH: EVQLVQSGAEVKKPGASVKVSCKASGYTFTEYTIHWVRQAPGKGLEWIGNINPNNGGTTYNQKFEDRVTITVDKSTSTAYMELSSLRSEDTAVYYCAAYWLFDYWGQGTTVTVSS VL: DIQMTQSPSTLSASVGDRVTITCKASQDVGTAVDWYQQKPGQAPKLLIYWASTRHTGVPDRFSGSGSGTDFTLTISRLQPEDFAVYYCQQYNSYPLTFGQGTKVDIK
0.354 nM	AB-04 (antibody, human IgG1, V domains shown, Variable domains only; Expressed as human IgG1 (G1m3) / kappa (Km3)) VH: EVQLVQSGAEVKKPGASVKVSCKASGYTFTEYTIHWVRQAPGKGLEWIGNINPNNGGTTYNQKFEDRVTITVDKSTSTAYMELSSLRSEDTAVYYCAGAWTMDYWGQGTTVTVSS VL: DIQMTQSPSTLSASVGDRVTITCKASQDVGTAVDWYQQKPGQAPKLLIYWASTRHTGVPDRFSGSGSGTDFTLTISRLQPEDFAVYYCQQFTRYPLTFGQGTKVDIK

Molecular target: T1, recombinant human PSMA (R&D Systems)
Assay: as above
Remark: another data set of the same source

Kd	Binder
0.224 nM	AB-05 (antibody, human IgG1, V domains shown, Variable domains only; Expressed as human IgG1 (G1m3) / kappa (Km3)) VH: EVQLVQSGAEVKKPGASVKVSCKASGYTFTEYTIHWVRQAPGKGLEWIGNINPNNGGTTYNQKFEDRVTITVDKSTSTAYMELSSLRSEDTAVYYCAAYWLFDYWGQGTTVTVSS VL: DIQMTQSPSTLSASVGDRVTITCKASQDVGTAVDWYQQKPGQAPKLLIYWASTRHTGVPDRFSGSGSGTDFTLTISRLQPEDFAVYYCQQYNAYSLTFGQGTKVDIK
